# Test results from patent US20060084135.
# T1: p53-382 acetylated peptide (Fluor de Lys-SIRT1), RHKK(Ac)
# T1 chain: RHKK
# B1: recombinant human SIRT1 (protein)
# chain: MADEAALALQPGGSPSAAGADREAASSPAGEPLRKRPRRDGPGLERSPGEPGGAAPEREVPAAARGCPGAAAAALWREAEAEAAAAGGEQEAQATAAAGEGDNGPGLQGPSREPPLADNLYDEDDDDEGEEEEEAAAAAIGYRDNLLFGDEIITNGFHSCESDEEDRASHASSSDWTPRPRIGPYTFVQQHLMIGTDPRTILKDLLPETIPPPELDDMTLWQIVINILSEPPKRKKRKDINTIEDAVKLLQECKKIIVLTGAGVSVSCGIPDFRSRDGIYARLAVDFPDLPDPQAMFDIEYFRKDPRPFFKFAKEIYPGQFQPSLCHKFIALSDKEGKLLRNYTQNIDTLEQVAGIQRIIQCHGSFATASCLICKYKVDCEAVRGDIFNQVVPRCPRCPADEPLAIMKPEIVFFGENLPEQFHRAMKYDKDEVDLLIVIGSSLKVRPVALIPSSIPHEVPQILINREPLPHLHFDVELLGDCDVIINELCHRLGGEYAKLCCNPVKLSEITEKPPRTQKELAYLSELPPTPLHVSEDSSSPERTSPPDSSVIVTLLDQAAKSNDDLDVSESKGCMEEKPQEVQTSRNVESIAEQMENPDLKNVGSSTGEKNERTSVAGTVRKCWPNRVAKEQISRRLDGNQYLFLPPNRYIFHGAEVYSDSEDDVLSSSSCGSNSDSGTCQSPSLEEPMEDESEIEEFYNGLEDEPDVPERAGGAGFGTDGDDQEAINEAISVKQEVTDMNYPSNKS
# Biological target: T1, p53-382 acetylated peptide (Fluor de …)
protein,measurement,value
B1,"Km (+100 µM resveratrol), SIRT1 initial rate vs p53-382 acetylated peptide concentration at 3 mM NAD+","Km(+resveratrol, Δ)=1.8 µM"
same,"Km (control), SIRT1 initial rate vs p53-382 acetylated peptide concentration at 3 mM NAD+","Km(control, ▪)=64 µM"
same,fold decrease of the acetylated peptide Km with 100 µM resveratrol,"Its effect on the acetylated peptide Km was particularly striking, amounting to a 35-fold decrease"
